Laboratory results from patent publication US10195578B2, “Peptide library production method, peptide library, and screening method” (The University of Tokyo, priority 2010, dated 2019).
Counter-ions that a name gives are not always drawn. Where a SMILES comes first, the peptide text is derived from it. Bridges are numbered along the chain shown (N, C = ends). Where no end group is shown, it is not given here. [ ]: non-standard residue; d: D form. The star is where a group is joined. Tfa = O=C(C(F)(F)F)*

Molecular target: T1, SIRT2 (Homo sapiens, UniProt Q8IXJ6)
T1 sequence (Q8IXJ6 1-389): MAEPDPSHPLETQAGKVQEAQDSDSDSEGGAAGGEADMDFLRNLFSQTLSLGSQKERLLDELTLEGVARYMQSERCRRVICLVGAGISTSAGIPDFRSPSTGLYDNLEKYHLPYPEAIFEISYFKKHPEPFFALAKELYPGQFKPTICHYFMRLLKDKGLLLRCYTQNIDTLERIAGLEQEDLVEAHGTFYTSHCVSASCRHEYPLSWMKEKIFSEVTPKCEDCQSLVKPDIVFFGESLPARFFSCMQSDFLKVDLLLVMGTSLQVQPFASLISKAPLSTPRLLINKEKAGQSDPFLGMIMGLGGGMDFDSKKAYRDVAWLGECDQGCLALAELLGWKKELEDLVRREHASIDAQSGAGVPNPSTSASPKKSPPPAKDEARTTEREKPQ
Assay: Evaluation of inhibitory activity of peptides against SIRT2 (fluorescence-using system)
Assay type: biochemical
Settings: peptide at 1 μM; FIG. 3
Excerpt: In an evaluation system using fluorescence, the inhibitory activity of the selected peptides against SIRT2 was studied. More specifically, first, peptides to be deacetylated with SIRT2 each having, at both ends thereof, a fluorescent group and a quenching group is deacetylated by mixing with SIRT2. When the resulting peptides are reacted with protease that cleaves only a deacetylated peptide, the quenching group is dissociated from the fluorescent group of only the peptides deacetylated with SIRT2 and fluorescence is emitted. During this deacetylation reaction, presence of an inhibitor against SIRT2 retards the progress of deacetylation of the substrate peptide and fluorescence intensity obtained in the end decreases. This means that the inhibitory ability of the selected peptides can be evaluated by the intensity of fluorescence observed in the end.

Molecule | inhibitory ability against SIRT2 (activity of SIRT2, fluorescence intensity)
XHTYHNZRRTNYYC [2L-05] | completely suppressed the activity of SIRT2
XYNTIIZTYGC ({CH2CO}-[dY]YNTIIK(trifluoroacetyl)TYGCGSGSGS; thioether N-11 (inferred)) [2D-03, thioether-cyclized peptide from NNC library; X = α-N-chloroacetyl-D-tyrosine, Z = ε-N-trifluoroacetyllysine] | completely suppressed the activity of SIRT2
CC[C@H](C)[C@@H]1NC(=O)[C@H](CCCNC(=N)N)NC(=O)[C@H](Cc2ccccc2)NC(=O)[C@H](CC(N)=O)NC(=O)[C@H](CO)NC(=O)[C@H](Cc2ccc(O)cc2)NC(=O)CSC[C@@H](C(=O)NCC(=O)N[C@@H](CO)C(=O)NCC(=O)N[C@@H](CO)C(=O)NCC(=O)N[C@@H](CO)C(=O)O)NC(=O)[C@H](CO)NC(=O)[C@H](CO)NC(=O)[C@H](CC(N)=O)NC(=O)[C@H](CO)NC(=O)[C@H](Cc2ccc(O)cc2)NC(=O)[C@H](CCCNC(=N)N)NC(=O)[C@H](CCCCNC(=O)C(F)(F)F)NC1=O [2L-08, XSNFRIZRYSNSSC] ({CH2CO}-YSNFRIK(Tfa)RYSNSSCGSGSGS-OH; thioether N-14; N-terminus and C-terminus assumed) | completely suppressed the activity of SIRT2
CC[C@H](C)[C@@H]1NC(=O)[C@H](CCCNC(=N)N)NC(=O)[C@H](Cc2ccc(O)cc2)NC(=O)[C@H](CC(=O)O)NC(=O)[C@H](Cc2c[nH]cn2)NC(=O)[C@@H](Cc2ccc(O)cc2)NC(=O)CSC[C@@H](C(=O)NCC(=O)N[C@@H](CO)C(=O)NCC(=O)N[C@@H](CO)C(=O)NCC(=O)N[C@@H](CO)C(=O)O)NC(=O)[C@@H]2CCCN2C(=O)[C@H](Cc2ccc(O)cc2)NC(=O)[C@H]([C@@H](C)O)NC(=O)[C@H](Cc2c[nH]cn2)NC(=O)[C@H](Cc2ccc(O)cc2)NC(=O)[C@H](CCCNC(=N)N)NC(=O)[C@H](CCCCNC(=O)C(F)(F)F)NC1=O [2D-08, XHDYRIZRYHTYPC] ({CH2CO}-[dY]HDYRIK(Tfa)RYHTYPCGSGSGS-OH; thioether N-14; N-terminus and C-terminus assumed) | completely suppressed the activity of SIRT2
